The results in this text go back to paper PMC3901395, “Multivalent interactions of the SUMO-interaction motifs in RING finger protein 4 determine the specificity for chains of the SUMO” (Biochemical Journal, 2013).

Holding throughout (experiment): ITC; VP-ITC or ITC200; 25°C; ITC buffer (50 mM Tris/HCl, pH 7.5, 150 mM NaCl, 2 mM DTT, 5% glycerol); SUMOs titrated into a solution of the RNF4 construct or peptide (legends of Figures 1B, 2B); 20–30 injections up to 2–3-fold molar excess; values averaged from two to six titrations
In test [1] the target is RNF4 1–125 (RNF4-SIM domain, wt) (human) (UniProt P78317).
The target in test [2] is RNF4-SIM2/3 peptide (human).
In test [3] the target is synthetic tandem PIAS1 SIM peptide.

RNF4 1–125 (RNF4-SIM domain, wt) (human), sequence (P78317 1-125): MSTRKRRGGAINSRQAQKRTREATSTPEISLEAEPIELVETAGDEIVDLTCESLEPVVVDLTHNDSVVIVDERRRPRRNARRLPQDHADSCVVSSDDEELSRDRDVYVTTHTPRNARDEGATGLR
RNF4-SIM2/3 peptide (human), sequence (P78317 43-65): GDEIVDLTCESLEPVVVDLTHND

For “linear tetra-SUMO1 (4×SUMO1-ΔN15) (from UniProt P63165 16-101; P63165 16-101; P63165 16-101; P63165 16-101)”, the Kd in test [1] was found to be 4.3 µM.
The same measure, in the same setting: as for “linear tetra-SUMO2 (4×SUMO2-ΔN11) (from UniProt P61956 12-95; P61956 12-95; P61956 12-95; P61956 12-95)”, the figure is 1.6 µM.
For “linear di-SUMO2 (2×SUMO2-ΔN11) (from UniProt P61956 12-95; P61956 12-95)”, the Kd was found to be 8.5 µM in test [2], 14 µM in test [1] and 3.8 µM in test [3].
For “linear di-SUMO1 (2×SUMO1-ΔN15) (from UniProt P63165 16-101; P63165 16-101)”, the Kd in test [1] came to 17 µM.

In general, Kd refers to the concentration at which binding is half-saturated. Read a low Kd as a tighter complex.
